Data reported in patent US7393670B2, “Tyrosyl-tRNA synthetase variants” (Japan Science and Technology Agency, priority 2001, dated 2008).

How the values were obtained:
[1] = system: wheat germ cell-free translation system; test: LC-MS analysis of K3 fragment of Ras translation products; type: biochemical; conditions: absorbance of chromatogram
Protocol: It was examined by mass spectrometry that iodotyrosine was actually inserted at the position corresponding to the amber codon of the peptide chain. Ras protein purified using nickel beads was applied on SDS-PAGE. A band corresponding to a mobility of Ras among stained product bands was cut out and treated with peptidase. A resultant fragment was analyzed by LC-MS (liquid chromatography—mass spectrometry). The 32nd codon of Ras protein used as a reporter protein is the codon for tyrosine. […] Among the fragments obtained by digesting the translation products, the fragment including the 32nd amino acid from N-terminus (Ser 17 to Lys 42, referred to as K3 fragment) was focused and analyzed. […] No K3 fragment was detected where the other amino acid was accidentally inserted at the site corresponding to the amber codon. The ratio of iodotyrosine to tyrosine inserted to the amber codon was examined by absorbance of chromatogram. […] On the other hand, no fragment having the mass corresponding to the case encompassing iodotyrosine in place of tyrosine was detected in the analysis of the translation products from mRNA which contained no amber codon. […]
It was examined by mass spectrometric analysis that iodotyrosine was actually inserted at the position corresponding to the amber codon of the peptide chain. […] Elutes were analyzed by Finnigan LCQ ion trap mass spectrometer using ESI probe. […]

[2] = Aminoacylation reaction, simplified Lloyd's method, inorganic phosphate detected with Biomol green; type: biochemical; set-up: key: ***: the reaction could be detected strongly at 25 nM; **: strongly at 250 nM; *: weakly at 250 nM; the activity is high in the order of *** > ** > * > —; conditions: Table 3; 3-iodotyrosine 1 mM; 37° C. for 4 min
Protocol: In the first method, Lloyd's method (Nucleic Acids Research, 23:2886-2892, 1995) where inorganic phosphate produced by pyrophosphatase-drived hydrolysis of pyrophosphate which was one of the reaction products of the aminoacylation reactions was quantified was simplified, and the inorganic phosphate was detected using Biomol green (Funakoshi) to carry out the measurement of the aminoacylation reaction.
Amino acid concentrations were 200 μM and 1 mM for tyrosine and 3-iodotyrosine, respectively.
The method where the aminoacylation reaction is measured by quantifying inorganic phosphate produced by pyrophosphatase-drived hydrolysis of pyrophosphate which is one of reaction products of the aminoacylation has been described by Lloyd et al. (Nucleic Acids Research, 23:2886-2892, 1995). In one method of the invention, this method was simplified and the aminoacylation reaction was measured by the detection of inorganic phosphate using Biomol green (Funakoshi). Each enzyme obtained was incubated with 0.05 ml of the buffer B containing 1 mM ATP (Seikagaku Corporation), 30 μM purified crude tyrosyl-tRNA, and 100 μM tyrosine or 0.5 mM 3-iodotyrosine at 37° C. for one hour. To stop the reaction, 0.1 ml of Bio mol green was added. Absorbance of its supernatant was measured at 630 nm.

B1: VC: E. coli TyrRS double variant: position 37 Valine, position 195 Cysteine (protein, UniProt P0AGJ9 2-424, looked up, variant Y37V Q195C)
Tyrosine--tRNA ligase: ASSNLIKQLQERGLVAQVTDEEALAERLAQGPIALVCGFDPTADSLHLGHLVPLLCLKRFQQAGHKPVALVGGATGLIGDPSFKAAERKLNTEETVQEWVDKIRKQVAPFLDFDCGENSAIAANNYDWFGNMNVLTFLRDIGKHFSVNQMINKEAVKQRLNREDQGISFTEFSYNLLQGYDFACLNKQYGVVLCIGGSDQWGNITSGIDLTRRLHQNQVFGLTVPLITKADGTKFGKTEGGAVWLDPKKTSPYKFYQFWINTADADVYRFLKFFTFMSIEEINALEEEDKNSGKAPRAQYVLAEQVTRLVHGEEGLQAAKRITECLFSGSLSALSEADFEQLAQDGVPMVEMEKGADLMQALVDSELQPSRGQARKTIASNAITINGEKQSDPEYFFKEEDRLFGRFTLLRRGKKNYCLICWK
K3 fragments encompassing iodotyrosine by the amber suppression [1]: ≥ 95%
ratio of tyrosine insertion at the amber codon [1]: ≤ 5%
Aminoacylation activity, 3-iodotyrosine [2]: **
